According to paper PMC2098691, “Regulation of the Xenopus Xsox17α1 promoter by co-operating VegT and Sox17 sites”:

Biological target: T1, VegT (Xenopus, UniProt P87377 1-455)
T1 sequence: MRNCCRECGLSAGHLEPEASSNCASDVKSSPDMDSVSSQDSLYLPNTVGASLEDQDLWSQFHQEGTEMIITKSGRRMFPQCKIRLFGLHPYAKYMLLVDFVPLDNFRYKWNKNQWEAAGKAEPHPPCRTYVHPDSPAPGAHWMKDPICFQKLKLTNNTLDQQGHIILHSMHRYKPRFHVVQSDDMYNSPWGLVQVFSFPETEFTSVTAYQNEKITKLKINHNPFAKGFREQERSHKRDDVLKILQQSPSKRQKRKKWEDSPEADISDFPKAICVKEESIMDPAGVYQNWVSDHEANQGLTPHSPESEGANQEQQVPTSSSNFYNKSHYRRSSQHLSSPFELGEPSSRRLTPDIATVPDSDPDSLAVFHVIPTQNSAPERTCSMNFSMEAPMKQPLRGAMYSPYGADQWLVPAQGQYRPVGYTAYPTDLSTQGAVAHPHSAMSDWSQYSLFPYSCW
Assay: EMSA; poly(dI.dC); 15 µl with 3 µl MDB buffer (20 mM HEPES pH 7.9, 100 mM KCl, 12.5 mM MgCl2, 0.1 mM EDTA, 17% glycerol, 2 mM DTT (printed DDT)), 2 µg poly(dI.dC), 1 µl IVT protein, 10 min + 10 min (preincubation at 30 °C); 15% gel at 4 °C; 50-fold competitor in controls
Settings: label: 5' 32P (forward strand), blunt

B1: B1 T-box probe (dsDNA)
DNA 1: TGTCCAGAGTTCACACCATCATTGTTTGTTA
DNA 2: TAACAAACAATGATGGTGTGAACTCTGGACA
- binding result: binds

B2: T-box consensus (Derrière) (dsDNA)
DNA 1: TCTCCAGAGTTCACACCTTCATTGTTTGTTA
DNA 2: TAACAAACAATGAAGGTGTGAACTCTGGAGA
- binding result: binds

B3: B1 T-box mutant (dsDNA)
DNA 1: TCTCCAGAGTACGCACATTCATTGTTTGTTA
DNA 2: TAACAAACAATGAATGTGCGTACTCTGGAGA
- binding result: no binding
